Assay results from US20260242478A1 (published 2026).
Where no end group is shown, it is not given here.

How the values were obtained:
006 PSMA Fab [1] = target: T1, 006 PSMA Fab; experiment: clonal phage ELISA on captured anti-PSMA Fab; competitor PSMA antigen
T1 construct: also called Anti-PSMA Fab
Protocol: (§1) Clonal phage were harvested as crude supernatants and screened via standard ELISAs. […] Prior to the addition of clonal phage. wells were incubated with blocking buffer and PSMA antigen or blocking buffer alone. Without washing or aspirating, clonal phage supernatants were then added to the wells and incubated for a short time. Wells were then washed followed by detection of bound phage using a horse radish conjugated anti-M13 antibody.

006 PSMA Fab [2] = target: T1, 006 PSMA Fab; experiment: clonal phage ELISA on biotinylated anti-PSMA Fab captured on neutravidin, anti-M13 HRP detection
Protocol: as §1

PSMA Fab [3] = target: T2, PSMA Fab; experiment: phage ELISA; biotinylated PSMA Fab on neutravidin plate, pre-incubated with PSMA antigen as competitor; anti-M13-HRP
T2 construct: Used biotinylated and captured on neutravidin plates in the phage ELISA; also called Anti-PSMA Fab; 006 PSMA Fab
Protocol: as §1

PSMA Fab [4] = target: T2, PSMA Fab; experiment: phage ELISA; biotinylated PSMA Fab on neutravidin plate, blocking buffer alone; bound phage detected with anti-M13-HRP
Protocol: as §1

PSMA Fab [5] = target: T3, PSMA Fab; experiment: phage ELISA; biotinylated PSMA Fab on neutravidin plate, blocking buffer alone, anti-M13 HRP detection
T3 construct: also called Anti-PSMA Fab; 006 PSMA Fab
Protocol: as §1

PSMA Fab [6] = target: T3, PSMA Fab; experiment: phage ELISA; biotinylated PSMA Fab on neutravidin plate, pre-incubated with PSMA antigen as competitor, anti-M13 HRP detection
Protocol: as §1

006 PSMA Fab [7] = target: T4, 006 PSMA Fab; experiment: clonal phage ELISA; biotinylated PSMA Fab on neutravidin plate, bound phage detected with anti-M13-HRP
T4 construct: also called Anti-PSMA Fab
Protocol: as §1

006 PSMA Fab [8] = target: T4, 006 PSMA Fab; experiment: clonal phage ELISA; biotinylated PSMA Fab on neutravidin plate, PSMA antigen as competitor, anti-M13-HRP
Protocol: as §1

Binder | phage binding ELISA signal with PSMA antigen present (006 PSMA Fab [1]) | phage binding ELISA signal (006 PSMA Fab [2]) | Phage binding ELISA signal, Anti-PSMA Fab in presence of PSMA antigen (PSMA Fab [3]) | Phage binding ELISA signal, Anti-PSMA Fab (PSMA Fab [4]) | Phage binding ELISA signal, Anti-PSMA Fab (PSMA Fab [5]) | Phage binding ELISA signal, Anti-PSMA Fab in presence of PSMA (PSMA Fab [6]) | further results
VVPWCSPAWMCSGF [Phage-3529] | 0.0752 | 1.67 |  |  |  |  | 
FTAQCVPLWMCLGF (also called Peptide-180 library clone) [Phage-3736] |  |  | 0.0789 | 1.39 |  |  | 
YGLRCEPAWMCQGF [Phage-3443] |  |  |  |  | 1.75 | 0.0879 | 
VSPSCVPPWMCVGF [Phage-3531] | 0.0791 | 1.66 |  |  |  |  | 
PAQMCIPQWMCNWL [Phage-3438] |  |  |  |  | 1.75 | 0.0635 | 
ALLSCVPPWMCLGL [Phage-3522] | 0.0728 | 1.68 |  |  |  |  | 
ADVRCVPDWMCWGM (also called Peptide-180 library clone) [Phage-3733] |  |  | 0.0602 | 1.4 |  |  | 
WTPLCKPLWMCQGL (also called Peptide-180 library clone) [Phage-3741] |  |  | 0.16 | 1.39 |  |  | 
EVQYCVPAWMCEGF [Phage-3520] | 0.117 | 1.68 |  |  |  |  | 
PSISCTPQWMCFGF [Phage-3521] | 0.0639 | 1.68 |  |  |  |  | 
MPIYCVPEWMCQGL [Phage-3446] |  |  |  |  | 1.75 | 0.0867 | 
DMARCIPAWMCTGF [Phage-3523] | 0.106 | 1.68 |  |  |  |  | 
HSVHCVPMWMCTGF (also called Peptide-180 library clone) [Phage-3738] |  |  | 0.0781 | 1.39 |  |  | 
YNMICQPQWMCSGF [Phage-3447] |  |  |  |  | 1.75 | 0.0661 | 
YPPLCKPEWMCVGL [Phage-3525] | 0.0714 | 1.67 |  |  |  |  | 
VTPRCIPEWMCAGF (cysteine pairing not given here; also: fused to pIII of bacteriophage) [Phage-3442] |  |  |  |  | 1.75 | 0.106 | 
WFRMCEPSWMCEGF [Phage-3527] | 0.11 | 1.67 |  |  |  |  | 
LEKVCKPMWMCTGF [Phage-3448] |  |  |  |  | 1.75 | 0.0949 | 
VLHMCVPLWMCHGL [Phage-3435] |  |  |  |  | 1.76 | 0.133 | 
SAIRCEPLWMCSGL [Phage-3519] | 0.0578 | 1.68 |  |  |  |  | 
ELLHCKPMWMCIGL [Phage-3524] | 0.0864 | 1.67 |  |  |  |  | 
YSISCVPQWMCEGF (also called Peptide-180 library clone) [Phage-3742] |  |  | 0.0591 | 1.39 |  |  | 
VNRMCVPVWMCQGF (also called Peptide-180 library clone) [Phage-3739] |  |  | 0.0729 | 1.39 |  |  | 

Binder | phage binding ELISA signal with PSMA antigen present (006 PSMA Fab [1]) | phage binding ELISA signal (006 PSMA Fab [2]) | Phage binding ELISA signal, Anti-PSMA Fab in presence of PSMA antigen (PSMA Fab [3]) | Phage binding ELISA signal, Anti-PSMA Fab (PSMA Fab [4]) | Phage binding ELISA signal, Anti-PSMA Fab (PSMA Fab [5]) | Phage binding ELISA signal, Anti-PSMA Fab in presence of PSMA (PSMA Fab [6]) | further results
LYKECVPQWMCSGF (also called Peptide-180 library clone) [Phage-3731] |  |  | 0.0798 | 1.4 |  |  | 
PGPSCVPSWMCVGF [Phage-3437] |  |  |  |  | 1.76 | 0.074 | 
LLLRCEPTWMCTGF (also called Peptide-180 library clone) [Phage-3740] |  |  | 0.0711 | 1.39 |  |  | 
QVKYCIPEWMCSSF (also called Peptide-180 library clone) [Phage-3735] |  |  | 0.0671 | 1.4 |  |  | 
GPKICVPMWMCDGF [Phage-3518] | 0.116 | 1.68 |  |  |  |  | 
DYSVCRPAWMCQGF (cysteine pairing not given here; also: fused to phage pIII, also called Peptide-180 library clone) [Phage-3729] |  |  | 0.0699 | 1.41 |  |  | 
VSHHCVPAWMCFGL (also called Peptide-180 library clone) [Phage-3737] |  |  | 0.0946 | 1.39 |  |  | 
TGMACVPWWMCEGF (also called Peptide-180 library clone) [Phage-3732] |  |  | 0.0812 | 1.4 |  |  | 
TPHACVPDWMCYGF [Phage-3444] |  |  |  |  | 1.75 | 0.0843 | 
EERICKPQWMCSAF [Phage-3530] | 0.0804 | 1.66 |  |  |  |  | 
PVRVCIPQWMCIGF [Phage-3440] |  |  |  |  | 1.75 | 0.13 | 
ELPVCRPSWMCGGL (also called Peptide-180 library clone) [Phage-3734] |  |  | 0.0603 | 1.4 |  |  | 
EIPYCVPQWMCVAM [Phage-3434] |  |  |  |  | 1.76 | 0.0788 | 
VKPVCKPVWMCVGF [Phage-3436] |  |  |  |  | 1.76 | 0.122 | 
VQPWCVPSWMCERF (also called Peptide-180 library clone) [Phage-3743] |  |  | 0.312 | 1.39 |  |  | 
FTARCEPSWMCVGF (also called Peptide-180 library clone) [Phage-3730] |  |  | 0.0626 | 1.41 |  |  | 
GYVMCEPRWMCEGL [Phage-3528] | 0.0803 | 1.67 |  |  |  |  | 
SPIMCTPDWMCLGF [Phage-3439] |  |  |  |  | 1.75 | 0.0708 | 
MDVWCVPTWMCQHL [Phage-3995] |  |  |  |  |  |  | Phage binding ELISA signal, Anti-PSMA Fab (006 PSMA Fab [7]): 0.627; phage binding ELISA signal (Anti-PSMA Fab, wells pre-incubated with PSMA antigen) (006 PSMA Fab [8]): 0.119
ITPMCIPAWMCEGV [Phage-3445] |  |  |  |  | 1.75 | 0.0611 | 
ETMICKPEWMCTGF [Phage-3441] |  |  |  |  | 1.75 | 0.0818 | 
LIALCKPPWMCEWF [Phage-3526] | 0.213 | 1.67 |  |  |  |  | 
VVRHCVPTWMCTGF [Phage-3532] | 0.102 | 1.66 |  |  |  |  | 
